Test results taken from patent publication US20110159022A1, “Immunogenic Peptides Derived from the Midkine Protein, as an Anticancer Vaccine” (priority 2008, published 2011).
Where a chain is given by its changes, count along the chain named.

Experiments:
HLA-DR1 (DRB1*0101) = HLA-DR1 (DRB1*0101) (Homo sapiens, UniProt P01903+P01911, A100R/D57E/F55L/F60I/F76Y/I96L/L162R/M171V/P40L/Q125E/R42F/V115G/Y59C); type: binding; details: ratio of IC50 of competitor peptide to IC50 of reference peptide; mean of at least two independent experiments; less than 100 = active
HLA-DR3 (DRB1*0301) = HLA-DR3 (DRB1*0301) (Homo sapiens, UniProt P01903+P01911, A100K/A102G/A103R/A169T/F55Y/I96L/K41T/L162R/M171V/P40S/Q125H/Q178H/Q39Y/R42S/S66N/T106N/T262R/W38E/Y61H); assay: HLA II/peptide competition binding assay, DR3; details: ratio of IC50 of competitor peptide to IC50 of reference peptide; mean of at least two independent experiments; less than 100 = active
HLA-DR4 (DRB1*0401) = HLA-DR4 (DRB1*0401) (Homo sapiens, UniProt P01903+P01911, A100K/A169T/F76Y/I96L/K127E/L162R/M171V/N62H/P40V/Q125Y/R42H/S133A/S149N/S66Y/V115G/V209L/W38E); assay: HLA II/peptide competition binding assay, DR4; details: ratio of IC50 of competitor peptide to IC50 of reference peptide; mean of at least two independent experiments; less than 100 = active
HLA-DR7 (DRB1*0701) = HLA-DR7 (DRB1*0701) (Homo sapiens, UniProt P01903+P01911, A100R/A102G/A103Q/D57E/D86V/E43K/F76Y/K127E/L162R/M171V/P40G/Q125H/Q99D/R33Q/R42Y/R54Q/S133A/S66F/T210M/V115G/Y107V/Y59L/Y89S); assay: HLA II/peptide competition binding assay, DR7; details: ratio of IC50 of competitor peptide to IC50 of reference peptide; mean of at least two independent experiments; less than 100 = active
HLA-DR11 (DRB1*1101) = HLA-DR11 (DRB1*1101) (Homo sapiens, UniProt P01903+P01911, A100R/A169T/A87E/I96F/K41T/L162R/M171V/P40S/Q125H/Q178H/Q39Y/Q99D/R42S/S66Y/T262R/V115G/W38E); type: binding; details: ratio of IC50 of competitor peptide to IC50 of reference peptide; mean of at least two independent experiments; less than 100 = active
HLA-DR15 (DRB1*1501) = HLA-DR15 (DRB1*1501) (Homo sapiens, UniProt P01903+P01911); assay: HLA II/peptide competition binding assay, DR15; details: ratio of IC50 of competitor peptide to IC50 of reference peptide; mean of at least two independent experiments; less than 100 = active
HLA-DRB3 (DRB3*0101) = HLA-DRB3 (DRB3*0101) (Homo sapiens, UniProt P01903+P79483); assay: HLA II/peptide competition binding assay, DRB3; details: ratio of IC50 of competitor peptide to IC50 of reference peptide; mean of at least two independent experiments; less than 100 = active
HLA-DRB4 (DRB4*0101) = HLA-DRB4 (DRB4*0101) (Homo sapiens, UniProt P01903+P13762, G164S); assay: HLA II/peptide competition binding assay, DRB4; details: ratio of IC50 of competitor peptide to IC50 of reference peptide; mean of at least two independent experiments; less than 100 = active
HLA-DP401 (DPB1*0401) = target: T1, HLA-DP401 (DPB1*0401) (Homo sapiens, UniProt P04440+P20036); type: binding; details: ratio of IC50 of competitor peptide to IC50 of reference peptide; mean of at least two independent experiments; less than 100 = active
T1 sequence (P04440 30-258): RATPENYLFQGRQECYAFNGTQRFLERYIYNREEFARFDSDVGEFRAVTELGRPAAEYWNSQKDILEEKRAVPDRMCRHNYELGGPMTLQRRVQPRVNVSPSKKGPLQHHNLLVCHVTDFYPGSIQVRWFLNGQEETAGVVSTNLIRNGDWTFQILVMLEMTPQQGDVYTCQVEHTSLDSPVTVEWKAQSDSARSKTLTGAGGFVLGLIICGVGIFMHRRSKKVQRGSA
T1 sequence (P20036 29-260): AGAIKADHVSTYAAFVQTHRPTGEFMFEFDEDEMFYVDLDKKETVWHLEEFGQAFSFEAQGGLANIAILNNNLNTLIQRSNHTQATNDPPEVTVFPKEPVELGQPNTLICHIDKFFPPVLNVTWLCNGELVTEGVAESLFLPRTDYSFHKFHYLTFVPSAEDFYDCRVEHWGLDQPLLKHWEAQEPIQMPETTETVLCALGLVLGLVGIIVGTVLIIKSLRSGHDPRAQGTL

HLA-DP402 (DPB1*0402) = target: T2, HLA-DP402 (DPB1*0402) (Homo sapiens, UniProt P04440+P20036, A65V/A84D/A85E/L207M); type: binding; details: ratio of IC50 of competitor peptide to IC50 of reference peptide; mean of at least two independent experiments; less than 100 = active
T2 sequence (P04440 30-258 A65V/A84D/A85E): T1 sequence (P04440 30-258) with A36V, A55D, A56E
T2 sequence (P20036 29-260): T1 sequence (P20036 29-260)

[1] = test system: 12 predominant HLA II molecules; assay: HLA II/peptide binding assays, count over the panel; design: species or system human; details: relative activity of less than 100 characterizes the active peptides
From the text: The assays for binding to HLA II molecules are competition binding assays with immunoenzymatic visualization, as described in U.S. Pat. No. 6,649,166 and PCT international application WO 03/040299, respectively, for the HLA-DR and HLA-DP4 molecules. The implementation of these assays for measuring the binding activity of peptides derived from various antigens is illustrated in U.S. Pat. No. 6,649,166 and PCT international applications WO 02/090382, WO 03/040299 and WO 2004/014936.
The sensitivity of each test is reflected by the IC50 values observed with the nonbiotinylated peptides which correspond to the tracers. […] The results are expressed in the form of relative activity (ratio of the IC50 of the competitor peptide to that of the reference peptide (nonbiotinylated peptide which corresponds to the tracer)). A relative activity of less than 100 characterizes the active peptides.

HLA-DR13 (DRB1*1301) = HLA-DR13 (DRB1*1301) (Homo sapiens, UniProt P01903+P01911, A100E/A169T/K41T/L162R/M171V/P40S/Q125H/Q178H/Q39Y/Q99D/R42S/S66N/T262R/W38E/Y61H); assay: HLA II/peptide competition binding assay, DR13; details: ratio of IC50 of competitor peptide to IC50 of reference peptide; mean of at least two independent experiments; less than 100 = active

| Substance | Relative binding activity, DR1 (HLA-DR1 (DRB1*0101)) | Relative binding activity, DR3 (HLA-DR3 (DRB1*0301)) | Relative binding activity, DR4 (HLA-DR4 (DRB1*0401)) | Relative binding activity, DR7 (HLA-DR7 (DRB1*0701)) | Relative binding activity, DR11 (HLA-DR11 (DRB1*1101)) | Relative binding activity, DR15 (HLA-DR15 (DRB1*1501)) | Relative binding activity, DRB3 (HLA-DRB3 (DRB3*0101)) | Relative binding activity, DRB4 (HLA-DRB4 (DRB4*0101)) | Relative binding activity, DP401 (HLA-DP401 (DPB1*0401)) | Relative binding activity, DP402 (HLA-DP402 (DPB1*0402)) | Total (number of the 12 predominant HLA II molecules bound) [1] | Relative binding activity, DR13 (HLA-DR13 (DRB1*1301)) | Total (number of the 12 predominant HLA II molecules bound) ([1]; listed as 1-15) |
| --- | --- | --- | --- | --- | --- | --- | --- | --- | --- | --- | --- | --- | --- |
| G T K V R Q G T L K K A R Y N (GTKVRQGTLKKARYN) [MDK 99-113] | 3 000 | >419 | >1 812 | >2 479 | >1 086 | >529 | >485 | >28 868 | >879 | >976 | 1 | – | – |
| K E F G A D C K Y K F E N W G (KEFGADCKYKFENWG) [MDK 78-92] | 299 | – | – | >2 479 | – | 216 | – | >28 868 | – | – | – | >2 537 | – |
| M Q H R G F L L L T L L A L L (MQHRGFLLLTLLALL; MDK 1-15 peptide) | – | >419 | 226 | – | – | 211 | – | – | – | – | 5 | >2 537 | several |
| C K Y K F E N W G A C D G G T (CKYKFENWGACDGGT) [MDK 84-98] | 187 | >419 | – | >2 479 | >1 086 | 141 | >485 | >28 868 | – | – | 2 | >2 537 | – |
| C N W K K E F G A D C K Y K F (CNWKKEFGADCKYKF) [MDK 74-88] | – | – | >1 812 | >2 479 | 1 231 | >529 | – | >28 868 | >879 | >976 | 1 | >2 537 | – |
| E T I R V T K P C T P K T K A (ETIRVTKPCTPKTKA) [MDK 119-133] | – | >419 | 1 289 | – | – | >529 | >485 | >28 868 | >879 | >976 | – | >2 537 | – |
| Q T Q R I R C R V P C N W K K (QTQRIRCRVPCNWKK) [MDK 64-78] | 246 | >419 | – | 2 066 | – | >529 | >485 | 1 155 | >879 | >976 | 1 | >2 537 | – |
